Drawing on paper PMC7609443, “Complement C1q Interacts With LRP1 Clusters II and IV Through a Site Close but Different From the Binding Site of Its C1r and C1s-Associated Proteases” (Frontiers in Immunology, 2020), this text covers Kd, koff and kon for three molecules.

As a reminder, the Kd is the concentration at which binding is half-saturated. A word on the koff: it is the rate constant with which the complex falls apart. A high value points to fast dissociation. The term kon denotes a measure of how fast the partners come together. Lower therefore signals slower complex formation.

B1: Soluble LRP1 cluster II (domain or fragment, human)
chain: AIDAGSPQCQPGEFACANSRCIQERWKCDGDNDCLDNSDEAPALCHQHTCPSDRFKCENNRCIPNRWLCDGDNDCGNSEDESNATCSARTCPPNQFSCASGRCIPISWTCDLDDDCGDRSDESASCAYPTCFPLTQFTCNNGRCININWRCDNDNDCGDNSDEAGCSHSCSSTQFKCNSGRCIPEHWTCDGDNDCGDYSDETHANCTNQATRPPGGCHTDEFQCRLDGLCIPLRWRCDGDTDCMDSSDEKSCEGVTHVCDPSVKFGCKDSARCISKAWVCDGDNDCEDNSDEENCESLACRPPSHPCANNTSVCLPPDKLCDGNDDCGDGSDEGELC
notes: four amino acids naturally located in full-length LRP1 after the cleavage site of the signal peptide; numbers count on: the mature protein; introduced by the cloning process (BamHI site); LRP1 cluster II, 8 CR modules (CR3-10), human; Secreted with the LRP1 signal peptide, which is cleaved; Glycosylated: 50,372 Da by MALDI; also called CR3-10
B2: Soluble LRP1 cluster IV (domain or fragment)
chain: not shown
notes: four amino acids naturally located in full-length LRP1 after the cleavage site of the signal peptide; numbers count on: the mature protein; introduced by the cloning process (BamHI site); LRP1 cluster IV, 11 CR modules (CR21-31), human; Secreted with the LRP1 signal peptide, which is cleaved; Glycosylated: 62,528 Da by MALDI; also called CR21-31

Common to all, as to details: both partners purified
For assay [1], the target named is T1, Recombinant C1q (wild type) (UniProt P02745 23-245; P02746 28-253; P02747 29-245).
T1 construct: complement C1q, A chain, recombinant; complement C1q, B chain, recombinant; complement C1q, C chain, recombinant; none of these is told here; also called rC1q WT; wild-type C1q; source: produced and purified as described in Bally et al. (16); copies: 6 + 6 + 6
T1 sequence (P02745 23-245, chain 1 of 3): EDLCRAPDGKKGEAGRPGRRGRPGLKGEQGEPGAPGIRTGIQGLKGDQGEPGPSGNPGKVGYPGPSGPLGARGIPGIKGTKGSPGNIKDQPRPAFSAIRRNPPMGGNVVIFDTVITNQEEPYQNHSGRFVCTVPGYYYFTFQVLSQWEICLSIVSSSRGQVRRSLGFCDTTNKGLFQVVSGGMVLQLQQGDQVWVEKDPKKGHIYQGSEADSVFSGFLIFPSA
T1 sequence (P02746 28-253, chain 2 of 3): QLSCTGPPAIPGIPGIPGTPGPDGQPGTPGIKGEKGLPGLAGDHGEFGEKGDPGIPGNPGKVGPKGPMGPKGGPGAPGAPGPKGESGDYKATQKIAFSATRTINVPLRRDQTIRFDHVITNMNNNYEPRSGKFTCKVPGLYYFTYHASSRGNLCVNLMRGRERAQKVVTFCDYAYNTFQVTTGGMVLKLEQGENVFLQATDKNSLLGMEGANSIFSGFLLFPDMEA
T1 sequence (P02747 29-245, chain 3 of 3): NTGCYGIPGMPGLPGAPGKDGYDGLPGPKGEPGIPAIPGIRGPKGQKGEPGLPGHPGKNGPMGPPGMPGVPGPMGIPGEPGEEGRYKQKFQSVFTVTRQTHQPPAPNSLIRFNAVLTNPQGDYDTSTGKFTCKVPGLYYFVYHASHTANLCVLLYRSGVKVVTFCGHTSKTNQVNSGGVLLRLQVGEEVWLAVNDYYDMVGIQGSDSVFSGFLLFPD
The assay can be described thus: SPR; T200; serum C1q (14,000 RU), rC1q WT (11,000 RU) or rC1qABC (12,300 RU) immobilised on CM5; clusters II and IV injected in 50 mM Tris, 150 mM NaCl, 2 mM CaCl2, 0.05% P20, pH 7.4, 180 s at 30 µl/min; KD by steady state analysis. In general terms: Surface plasmon resonance follows binding to a sensor surface in real time, without labels.

The target in assay [2] is T2, C1q purified from human serum (human, UniProt P02745 23-245; P02746 28-253; P02747 29-245).
T2 construct: complement C1q, A chain, human, from serum; complement C1q, B chain, human, from serum; complement C1q, C chain, human, from serum; also called serum C1q; sC1q; source: purified from human serum; copies: 6 + 6 + 6
T2 sequence (P02745 23-245, chain 1 of 3): as the sequence (P02745 23-245, chain 1 of 3) above
T2 sequence (P02746 28-253, chain 2 of 3): as the sequence (P02746 28-253, chain 2 of 3) above
T2 sequence (P02747 29-245, chain 3 of 3): as the sequence (P02747 29-245, chain 3 of 3) above
The assay is described as above.

For assay [3], the target named is T3, C1q mutant LysA59Ala/LysB61Ala/LysC58Ala (UniProt P02745 23-245; P02746 28-253; P02747 29-245, LysA59Ala | LysB61Ala | LysC58Ala).
T3 construct: complement C1q, A chain, recombinant; complement C1q, B chain, recombinant; complement C1q, C chain, recombinant; also called rC1qABC; rC1q ABC; source: produced and purified as described in Bally et al. (16); copies: 6 + 6 + 6
T3 sequence (P02745 other isoform, or with tags, fused parts or gaps with the stated changes, chain 1 of 3): as the sequence (P02745 23-245, chain 1 of 3) above, with K59A counted along it
T3 sequence (P02746 other isoform, or with tags, fused parts or gaps with the stated changes, chain 2 of 3): as the sequence (P02746 28-253, chain 2 of 3) above, with K61A counted along it
T3 sequence (P02747 other isoform, or with tags, fused parts or gaps with the stated changes, chain 3 of 3): as the sequence (P02747 29-245, chain 3 of 3) above, with K58A counted along it
The assay is described as above.

Assay [4] deals with T2, C1q purified from human serum. Nature of the assay: SPR; T200; cluster II (1,230 RU) or cluster IV (1,270 RU) immobilised on CM5; serum C1q, CLR or GR injected in 50 mM Tris, 150 mM NaCl, 2 mM CaCl2, 0.05% P20, pH 7.4, 30 µl/min; KD from C1q 0.125-8 nM by steady state analysis; for competition C1q pre-incubated 15 min at 25°C with C1r2s2.
In assay [5] the target is T4, Full-length LRP1 (soluble LRP1) (human, UniProt Q07954 20-4419).
T4 construct: LDL receptor-related protein 1 (LRP1, CD91), soluble form called ecto-LRP1; also called ecto-LRP1; ecto LRP1; source: produced and purified according to De Nardis et al. (15)
Nature of the assay: SPR; BIAcore 3000; full-length (ecto) LRP1 (7,400 RU) or clusters II (2,967 RU), III (3,460 RU), IV (3,396 RU) immobilised on CM5 by amine coupling; RAP 0.25-16 nM injected in 50 mM TEA, 150 mM NaCl, 1 mM CaCl2, 0.005% P20, pH 7.4, 20 µl/min; global fit, 1:1 Langmuir.

The target in the assay “Soluble LRP1 cluster IV” is B2. The description is as above.
Another assay concerns the target T5, Soluble LRP1 cluster III (human, UniProt Q07954 2522-2940).
T5 construct: four amino acids naturally located in full-length LRP1 after the cleavage site of the signal peptide; numbers count on: the mature protein; introduced by the cloning process (BamHI site); LRP1 cluster III, 10 CR modules (CR11-20), human; Secreted with the LRP1 signal peptide, which is cleaved; Glycosylated: 63,734 Da by MALDI; also called CR11-20
The assay is described as above.

The assay “Soluble LRP1 cluster II” addresses B1. The description is as above.

Soluble LRP1 cluster IV, sequence (Q07954 other isoform, or with tags, fused parts or gaps): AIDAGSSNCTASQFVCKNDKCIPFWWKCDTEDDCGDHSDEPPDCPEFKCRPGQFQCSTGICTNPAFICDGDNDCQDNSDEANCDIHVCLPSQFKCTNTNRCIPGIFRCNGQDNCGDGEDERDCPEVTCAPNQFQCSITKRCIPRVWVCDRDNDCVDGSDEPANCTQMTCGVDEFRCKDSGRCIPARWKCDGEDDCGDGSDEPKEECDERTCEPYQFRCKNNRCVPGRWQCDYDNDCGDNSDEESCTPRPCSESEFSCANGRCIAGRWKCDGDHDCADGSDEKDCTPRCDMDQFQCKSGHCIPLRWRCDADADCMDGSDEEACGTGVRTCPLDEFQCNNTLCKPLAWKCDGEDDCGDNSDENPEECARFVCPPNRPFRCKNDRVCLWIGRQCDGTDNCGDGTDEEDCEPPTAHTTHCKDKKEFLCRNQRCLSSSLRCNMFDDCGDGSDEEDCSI
T5 sequence (Q07954 other isoform, or with tags, fused parts or gaps): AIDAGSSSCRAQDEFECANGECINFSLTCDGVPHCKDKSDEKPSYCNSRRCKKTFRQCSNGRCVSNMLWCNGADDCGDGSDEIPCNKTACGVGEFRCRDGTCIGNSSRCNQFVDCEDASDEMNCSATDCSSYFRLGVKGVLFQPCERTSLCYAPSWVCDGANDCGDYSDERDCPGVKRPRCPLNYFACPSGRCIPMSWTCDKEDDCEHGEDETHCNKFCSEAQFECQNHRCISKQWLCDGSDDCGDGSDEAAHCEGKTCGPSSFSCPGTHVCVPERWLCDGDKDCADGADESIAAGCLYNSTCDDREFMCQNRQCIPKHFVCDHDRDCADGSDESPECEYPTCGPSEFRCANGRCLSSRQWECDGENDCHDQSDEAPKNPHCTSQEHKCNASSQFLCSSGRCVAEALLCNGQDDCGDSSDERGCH

Regarding B1, the Kd in assay [1] amounted to 0.318 µM; in assay [2] it was 0.275 µM; in assay [3] it was 0.514 µM; in assay [4], 0.00349 µM.

As for B2, the Kd in assay [1] amounted to 0.183 µM; in assay [2], 0.158 µM; in assay [3], 0.222 µM; in assay [4], 0.00069 µM.

B3: Receptor-associated protein (RAP) (natural protein, UniProt P30533 35-357, looked up)
chain: YSREKNQPKPSPKRESGEEFRMEKLNQLWEKAQRLHLPPVRLAELHADLKIQERDELAWKKLKLDGLDEDGEKEARLIRNLNVILAKYGLDGKKDARQVTSNSLSGTQEDGLDDPRLEKLWHKAKTSGKFSGEELDKLWREFLHHKEKVHEYNVLLETLSRTEEIHENVISPSDLSDIKGSVLHSRHTELKEKLRSINQGLDRLRRVSHQGYSTEAEFEEPRVIDLWDLAQSANLTDKELEAFREELKHFEAKIEKHNHYQKQLEIAHEKLRHAESVGDGERVSRSREKHALLEGRTKELGYTVKKHLQDLSGRISRARHNEL
notes: receptor-associated protein (RAP), chaperone of 39 kDa of LRP1; Y'; The printed 'Y' may be the first residue of mature RAP (surmise)
With B3, the dissociation constant (Kd) in assay [5] came to 0.00076 µM; with Soluble LRP1 cluster IV, 0.00128 µM; with Soluble LRP1 cluster III, 0.00106 µM; in the assay with Soluble LRP1 cluster II, 0.00109 µM. Further, the off-rate constant (koff) in assay [5] turned out to be 0.00105 s⁻¹; with Soluble LRP1 cluster IV, 0.00147 s⁻¹; with Soluble LRP1 cluster III, 0.00308 s⁻¹; with Soluble LRP1 cluster II, 0.00196 s⁻¹. The kon in assay [5] is 1.41e+06 M⁻¹ s⁻¹; with Soluble LRP1 cluster IV, 1.18e+06 M⁻¹ s⁻¹; with Soluble LRP1 cluster III it was 2.95e+06 M⁻¹ s⁻¹; with Soluble LRP1 cluster II, 2.2e+06 M⁻¹ s⁻¹.
